The series in a line: Rodent pharmacokinetics of PIE12-trimer and conjugates (Table 3 protocol). Type of series: in vivo, Sprague Dawley rats. The conditions noted are these: rats; for bioavailability: Sprague Dawley; for bioavailability / AUC(0-inf) / C0 / clearance / half-life / Vd / Cmax / Tmax: rat; for AUC(0-inf) / C0 / clearance / half-life / Vd / Cmax / Tmax: in vivo; for clearance: read-out: Cl (obs) (converted); for half-life: read-out: T1/2 (converted); for Vd: read-out: Vz (obs). The protocol: At each timepoint, plasma was obtained using lithium heparin.
Samples were spiked with an internal standard then precipitated with two volumes of 98% acetonitrile/2% Formic acid. Supernatants were analyzed by LC/MS/MS using an Agilent HPLC system (Waters X-Bridge BEH C18 column) paired to an AB Sciex API 3000 triple-quad mass spectrometer using MRM methods. Lipid conjugates required lower source temperatures (300° C. vs 500° C.) for improved reproducibility.

Data on three compounds can be found in patent US10487121B2, “D-peptide inhibitors of HIV entry and methods of use” (priority 2016, dated 2019).

Where two headings read alike, the source gives them in different places.

Broadly, the bioavailability is dose-corrected exposure relative to a reference, in per cent. Low values mean poor availability, high ones good availability. As usually defined, the AUC(0-inf) is the area under the concentration-time curve extrapolated to infinity. A low value points to low exposure. What is called Cmax is the highest concentration seen after dosing. In general, Tmax refers to the time at which the peak concentration occurs. Regarding `CCCCCCCCCCCCCCCCCCSC1CC(=O)N(CCC(=O)NCCOCCOCCOCCOCCOCCOCCOCCOCCOCCOCCOCCOCCOCCOCCOCCOCCOCCOCCOCCOCCOCCOCCOCCOCCC(=O)NC(COCCC(=O)NCCOCCOCCOCCOCCC(=O)NCCCC[C@@H](NC(=O)CNC(=O)[C@@H](CC(C)C)NC(=O)[C@@H](CCC(=O)O)NC(=O)[C@H]2CSSC[C@@H](NC(=O)[C@H]3CCCN3C(=O)[C@@H](Cc3c[nH]cn3)NC(C)=O)C(=O)N[C@H](CC(=O)O)C(=O)N[C@H](Cc3ccc(O)cc3)C(=O)N3CCC[C@@H]3C(=O)N[C@H](CCC(=O)O)C(=O)N[C@H](Cc3c[nH]c4ccccc34)C(=O)N[C@H](CCC(N)=O)C(=O)N[C@H](Cc3c[nH]c4ccccc34)C(=O)N[C@H](CC(C)C)C(=O)N2)C(N)=O)(COCCC(=O)NCCOCCOCCOCCOCCC(=O)NCCCC[C@@H](NC(=O)CNC(=O)[C@@H](CC(C)C)NC(=O)[C@@H](CCC(=O)O)NC(=O)[C@H]2CSSC[C@@H](NC(=O)[C@H]3CCCN3C(=O)[C@@H](Cc3c[nH]cn3)NC(C)=O)C(=O)N[C@H](CC(=O)O)C(=O)N[C@H](Cc3ccc(O)cc3)C(=O)N3CCC[C@@H]3C(=O)N[C@H](CCC(=O)O)C(=O)N[C@H](Cc3c[nH]c4ccccc34)C(=O)N[C@H](CCC(N)=O)C(=O)N[C@H](Cc3c[nH]c4ccccc34)C(=O)N[C@H](CC(C)C)C(=O)N2)C(N)=O)COCCC(=O)NCCOCCOCCOCCOCCC(=O)NCCCC[C@@H](NC(=O)CNC(=O)[C@@H](CC(C)C)NC(=O)[C@@H](CCC(=O)O)NC(=O)[C@H]2CSSC[C@@H](NC(=O)[C@H]3CCCN3C(=O)[C@@H](Cc3c[nH]cn3)NC(C)=O)C(=O)N[C@H](CC(=O)O)C(=O)N[C@H](Cc3ccc(O)cc3)C(=O)N3CCC[C@@H]3C(=O)N[C@H](CCC(=O)O)C(=O)N[C@H](Cc3c[nH]c4ccccc34)C(=O)N[C@H](CCC(N)=O)C(=O)N[C@H](Cc3c[nH]c4ccccc34)C(=O)N[C@H](CC(C)C)C(=O)N2)C(N)=O)C1=O` (stereo partly shown) [C18-PIE12-trimer], where the note is “SC, 1.0 mg/kg, plasma, median”, the bioavailability came out at 93%, the AUC(0-inf) turned out to be 0.713 µM·h, the Cmax turned out to be 196 nM and the Tmax was determined as 2 h. Also, the half-life (SC, 1.0 mg/kg, plasma, median) was 1.39 h. Moreover, for the setting “IV, 1.0 mg/kg, plasma, median”, the area under the curve AUC(0-inf) came to 0.766 µM·h, the C0 worked out at 900 nM, the clearance was 2.5 mL/min/kg and the half-life was 1.05 h. Also, the Vd (IV, 1.0 mg/kg, plasma, median) was determined as 0.23 L/kg.
Consider `CCCCCCCCCCCCCCCC(=O)N[C@H](CSC1CC(=O)N(CCC(=O)NCCOCCOCCOCCOCCOCCOCCOCCOCCOCCOCCOCCOCCOCCOCCOCCOCCOCCOCCOCCOCCOCCOCCOCCOCCC(=O)NC(COCCC(=O)NCCOCCOCCOCCOCCC(=O)NCCCC[C@@H](NC(=O)CNC(=O)[C@@H](CC(C)C)NC(=O)[C@@H](CCC(=O)O)NC(=O)[C@H]2CSSC[C@@H](NC(=O)[C@H]3CCCN3C(=O)[C@@H](Cc3c[nH]cn3)NC(C)=O)C(=O)N[C@H](CC(=O)O)C(=O)N[C@H](Cc3ccc(O)cc3)C(=O)N3CCC[C@@H]3C(=O)N[C@H](CCC(=O)O)C(=O)N[C@H](Cc3c[nH]c4ccccc34)C(=O)N[C@H](CCC(N)=O)C(=O)N[C@H](Cc3c[nH]c4ccccc34)C(=O)N[C@H](CC(C)C)C(=O)N2)C(N)=O)(COCCC(=O)NCCOCCOCCOCCOCCC(=O)NCCCC[C@@H](NC(=O)CNC(=O)[C@@H](CC(C)C)NC(=O)[C@@H](CCC(=O)O)NC(=O)[C@H]2CSSC[C@@H](NC(=O)[C@H]3CCCN3C(=O)[C@@H](Cc3c[nH]cn3)NC(C)=O)C(=O)N[C@H](CC(=O)O)C(=O)N[C@H](Cc3ccc(O)cc3)C(=O)N3CCC[C@@H]3C(=O)N[C@H](CCC(=O)O)C(=O)N[C@H](Cc3c[nH]c4ccccc34)C(=O)N[C@H](CCC(N)=O)C(=O)N[C@H](Cc3c[nH]c4ccccc34)C(=O)N[C@H](CC(C)C)C(=O)N2)C(N)=O)COCCC(=O)NCCOCCOCCOCCOCCC(=O)NCCCC[C@@H](NC(=O)CNC(=O)[C@@H](CC(C)C)NC(=O)[C@@H](CCC(=O)O)NC(=O)[C@H]2CSSC[C@@H](NC(=O)[C@H]3CCCN3C(=O)[C@@H](Cc3c[nH]cn3)NC(C)=O)C(=O)N[C@H](CC(=O)O)C(=O)N[C@H](Cc3ccc(O)cc3)C(=O)N3CCC[C@@H]3C(=O)N[C@H](CCC(=O)O)C(=O)N[C@H](Cc3c[nH]c4ccccc34)C(=O)N[C@H](CCC(N)=O)C(=O)N[C@H](Cc3c[nH]c4ccccc34)C(=O)N[C@H](CC(C)C)C(=O)N2)C(N)=O)C1=O)C(=O)O` (stereo partly shown) [Palm-PIE12-trimer], for which, for the setting “IV, 1.2 mg/kg, plasma, median”, the AUC(0-inf) was 2.24 µM·h, the C0 was 2240 nM, the clearance is 1.02 mL/min/kg and the half-life was 1.83 h. In addition, the Vd (IV, 1.2 mg/kg, plasma, median) came out at 0.14 L/kg. Besides, under “SC, 1.2 mg/kg, plasma, median”, the AUC(0-inf) was determined as 2.31 µM·h, the Cmax is 585 nM, the Tmax is 1 h and the half-life was 2.23 h. Further, the F (SC, 1.2 mg/kg, plasma, median) was determined as 103%. For the same compound, for the setting “IV”, the “increase of IV half-life vs PIE12-trimer” value was over 3 fold and the “reduction of clearance vs PIE12-trimer” value is reported as about 14 fold. For the same compound, the “bioavailability upon SC dosing, in words” value (SC) is recorded as “fully bioavailable”. The “extension of SC (apparent) half-life vs PIE12-trimer” value (SC, terminal phase elimination) is about 3 fold.
Regarding `CCCCCCCCCCCCCCCCSC1CC(=O)N(CCC(=O)NCCOCCOCCOCCOCCOCCOCCOCCOCCOCCOCCOCCOCCOCCOCCOCCOCCOCCOCCOCCOCCOCCOCCOCCOCCC(=O)NC(COCCC(=O)NCCOCCOCCOCCOCCC(=O)NCCCC[C@@H](NC(=O)CNC(=O)[C@@H](CC(C)C)NC(=O)[C@@H](CCC(=O)O)NC(=O)[C@H]2CSSC[C@@H](NC(=O)[C@H]3CCCN3C(=O)[C@@H](Cc3c[nH]cn3)NC(C)=O)C(=O)N[C@H](CC(=O)O)C(=O)N[C@H](Cc3ccc(O)cc3)C(=O)N3CCC[C@@H]3C(=O)N[C@H](CCC(=O)O)C(=O)N[C@H](Cc3c[nH]c4ccccc34)C(=O)N[C@H](CCC(N)=O)C(=O)N[C@H](Cc3c[nH]c4ccccc34)C(=O)N[C@H](CC(C)C)C(=O)N2)C(N)=O)(COCCC(=O)NCCOCCOCCOCCOCCC(=O)NCCCC[C@@H](NC(=O)CNC(=O)[C@@H](CC(C)C)NC(=O)[C@@H](CCC(=O)O)NC(=O)[C@H]2CSSC[C@@H](NC(=O)[C@H]3CCCN3C(=O)[C@@H](Cc3c[nH]cn3)NC(C)=O)C(=O)N[C@H](CC(=O)O)C(=O)N[C@H](Cc3ccc(O)cc3)C(=O)N3CCC[C@@H]3C(=O)N[C@H](CCC(=O)O)C(=O)N[C@H](Cc3c[nH]c4ccccc34)C(=O)N[C@H](CCC(N)=O)C(=O)N[C@H](Cc3c[nH]c4ccccc34)C(=O)N[C@H](CC(C)C)C(=O)N2)C(N)=O)COCCC(=O)NCCOCCOCCOCCOCCC(=O)NCCCC[C@@H](NC(=O)CNC(=O)[C@@H](CC(C)C)NC(=O)[C@@H](CCC(=O)O)NC(=O)[C@H]2CSSC[C@@H](NC(=O)[C@H]3CCCN3C(=O)[C@@H](Cc3c[nH]cn3)NC(C)=O)C(=O)N[C@H](CC(=O)O)C(=O)N[C@H](Cc3ccc(O)cc3)C(=O)N3CCC[C@@H]3C(=O)N[C@H](CCC(=O)O)C(=O)N[C@H](Cc3c[nH]c4ccccc34)C(=O)N[C@H](CCC(N)=O)C(=O)N[C@H](Cc3c[nH]c4ccccc34)C(=O)N[C@H](CC(C)C)C(=O)N2)C(N)=O)C1=O` (stereo partly shown) [C16-PIE12-Trimer], under “SC, 1.0 mg/kg, plasma, median”, the bioavailability was 38%, the AUC(0-inf) amounted to 0.442 µM·h, the maximum concentration (Cmax) worked out at 192 nM and the Tmax is 1 h. For the same compound, under “SC, 1.0 mg/kg, plasma, median”, the half-life is 1.18 h. In addition, for the setting “IV, 1.0 mg/kg, plasma, median”, the AUC(0-inf) was determined as 1.16 µM·h, the C0 worked out at 1880 nM, the clearance is 1.67 mL/min/kg and the half-life is 0.93 h. In addition, the Vd (IV, 1.0 mg/kg, plasma, median) turned out to be 0.14 L/kg.
